Experimental data reported in US20040048790A1 (published 2004).
Like-named read-outs stand apart in the source and are kept apart here. Non-standard residues stand in square brackets, D forms with d. No end group written: not given here. Abu = CC[C@H](N)C(=O)O

Tests used:
[1] = target: HLA-A*0206 (human); assay: 125I-probe peptide inhibition, purified HLA
[2] = target: HLA-A*0203 (human); assay: 125I-probe peptide inhibition, purified HLA
[3] = target: HLA-A*0206 (human); assay: 125I-probe peptide inhibition, purified HLA; remark: listed apart in the source
[4] = target: HLA-A*6801 (human); assay: 125I-probe peptide inhibition, purified HLA
[5] = target: HLA-B*5301 (human); assay: 125I-probe peptide inhibition, purified HLA
[6] = target: HLA-B*3501 (human); assay: 125I-probe peptide inhibition, purified HLA
[7] = target: HLA-B*5401 (human); assay: 125I-probe peptide inhibition, purified HLA
[8] = target: HLA-B*0702 (human); assay: 125I-probe peptide inhibition, purified HLA
[9] = target: HLA-B*5101 (human); assay: 125I-probe peptide inhibition, purified HLA
[10] = target: HLA-B*5301 (human); assay: competition vs 125I probe peptide, purified HLA
[11] = target: HLA-B*5401 (human); assay: competition vs 125I probe peptide, purified HLA
[12] = target: HLA-B*5101 (human); assay: competition vs 125I probe peptide, purified HLA
[13] = target: HLA-B*0702 (human); assay: competition vs 125I probe peptide, purified HLA
[14] = target: HLA-A*2402 (human); assay: competition vs 125I probe peptide, purified HLA

Binder [Abu]QLAKT[Abu]PV [p53.135B1B7] has an IC50 [1] of 67 nM.

[Abu]LLAKT[Abu]PV [p53.135B1L2B7] was tested, and the IC50 [2] was 7.7 nM and the IC50 [3] was 64 nM.

With SS[Abu]MGGMNK [p53.240 (9-mer SSBMGGMNK)] the IC50 [4] was 140 nM.

For FPLPSQAI [p53.33.F1], the IC50 [5] was 291 nM, the IC50 [6] was 720 nM and the IC50 [7] was 83 nM.

With FPRMPEAAPPI [p53.63.F1111] the IC50 [5] was 5470 nM and the IC50 [7] was 2.9 nM.

FPRMPEAAPPV [p53.63F1] was tested, and the IC50 [7] was 0.3 nM.

FPPVAPAPAI [p53.70.F1110] showed an IC50 [8] of 290 nM and an IC50 [7] of 63 nM.

FPAPAAPTPA [p53.74.F1 (10-mer)] gave an IC50 [8] of 0.8 nM, an IC50 [6] of 28 nM and an IC50 [7] of 1.1 nM.

FPAPAAPTPAA [p53.74.F1 (11-mer)] gave an IC50 [8] of 87 nM and an IC50 [7] of 2.1 nM.

For FPAAPTPAA [p53.76.F1 (9-mer)], the IC50 [5] was 620 nM, the IC50 [7] was 1 nM and the IC50 [9] was 809 nM.

FPAAPTPAAPA [p53.76.F1 (11-mer)] gave an IC50 [8] of 34 nM and an IC50 [7] of 1.3 nM.

Work on FPTPAAPI [p53.79.F118] yielded an IC50 [8] of 90 nM, an IC50 [5] of 6200 nM and an IC50 [7] of 7.7 nM.

Work on FPAPAPSWPI [p53.84.F1110] yielded an IC50 [7] of 1.2 nM.

FPAPAPSWPL [p53.84.F1] showed an IC50 [6] of 5.1 nM and an IC50 [7] of 1.7 nM.

FPAPSWPI [p53.86.F118] gave an IC50 [8] of 120 nM, an IC50 [5] of 3.3 nM and an IC50 [6] of 4.8 nM. The IC50 [7] was 1.6 nM.

In the case of FPAPSWPL [p53.86.F1], the IC50 [5] is reported as 4 nM, the IC50 [6] is reported as 3.1 nM and the IC50 [7] is reported as 9.1 nM.

FPSWPLSSSI [p53.88.F1110] showed an IC50 [5] of 8.5 nM and an IC50 [7] of 2.4 nM.

FPSWPLSSSV [p53.88.F1] showed an IC50 [10] of 93 nM and an IC50 [11] of 0.3 nM.

With FPALNKMI [p53.127.F1I8] the IC50 [12] was 220 nM.

In the case of FPILTIITI [p53.249.F1I9], the IC50 [10] is reported as 4 nM, the IC50 [11] is reported as 1.8 nM and the IC50 [12] is reported as 9 nM. The IC50 [13] was 74 nM.

Binder FPILTIITL [p53.249.F1] has an IC50 [11] of 5 nM and an IC50 [13] of 6.5 nM.

For TYQGSYGFRF [p53.102.F10], the IC50 [14] was 30 nM.
